The chains are these.
B2: HrpN (harpin) of Erwinia amylovora, full-length, yeast two-hybrid construct (other)
chain: MSLNTSGLGASTMQISIGGAGGNNGLLGTSRQNAGLGGNSALGLGGGNQNDTVNQLAGLLTGMMMMMSMMGGGGLMGGGLGGGLGNGLGGSGGLGEGLSNALNDMLGGSLNTLGSKGGNNTTSTTNSPLDQALGINSTSQNDDSTSGTDSTSDSSDPMQQLLKMFSEIMQSLFGDGQDGTQGSSSGGKQPTEGEQNAYKKGVTDALSGLMGNGLSQLLGNGGLGGGQGGNAGTGLDGSSLGGKGLQNLSGPVDYQQLGNAVGTGIGMKAGIQALNDIGTHSDSSTRSFVNKGDRAMAKEIGQFMDQYPEVFGKPQYQKGPGQEVKTDDKSWAKALSKPDDDGMTPASMEQFNKAKGMIKSAMAGDTGNGNLQARGAGGSSLGIDAMMAGDAINNMALGKLGAA
notes: also called pGilda-hrpN; full-length HrpN protein

Series [1] has as its target AtHIPM, endogenous protein in Arabidopsis thaliana ecotype Columbia plants (Arabidopsis thaliana). Kind of series: cell-based or functional assay.
Series [2] concerns the molecule itself. Kind of series: yeast two-hybrid (LexA system), self-interaction.
Series [3] deals with T1, LexA-lamin (UniProt P02545 66-230).
T1 construct: not shown: LexA part of the fusion
T1 sequence: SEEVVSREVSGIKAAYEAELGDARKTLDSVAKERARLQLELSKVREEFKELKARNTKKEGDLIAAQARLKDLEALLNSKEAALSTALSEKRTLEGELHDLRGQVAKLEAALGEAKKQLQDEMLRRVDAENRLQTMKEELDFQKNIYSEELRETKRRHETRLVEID
Kind of series: yeast two-hybrid (LexA system), growth without leucine.

Series [4] deals with T2, HrpN-4, truncated derivative of HrpN spanning residues 1-198 (Erwinia amylovora, UniProt Q01099 1-198).
T2 construct: Cloned in pGilda (LexA fusion, bait)
T2 sequence (looked up): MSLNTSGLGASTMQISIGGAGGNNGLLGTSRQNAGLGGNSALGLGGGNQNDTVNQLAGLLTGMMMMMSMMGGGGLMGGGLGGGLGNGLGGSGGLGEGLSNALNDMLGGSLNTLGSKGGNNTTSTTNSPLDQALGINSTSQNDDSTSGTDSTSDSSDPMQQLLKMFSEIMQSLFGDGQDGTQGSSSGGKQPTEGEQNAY
Nature of the series: yeast two-hybrid, HrpN deletions in pGilda against pB42AD-HIPM.
Source text: Transformants were selected on minimal synthetic dropout (“SD”) medium containing glucose but lacking histidine and tryptophan (“SD/glu-HT”). To identify yeast transformants with positive interaction, the transformants were screened on SD medium with galactose but without histidine, tryptophan, and leucine (“SD/gal-HTL”). Yeast colonies with positive interaction grow in this medium. A yeast strain transformed with p53 as bait and large antigen T as prey was used as a positive control. […] Yeast cell cultures were grown overnight in the SD/glu-HT medium. The cells then were washed once with water and resuspended in water. 10 μl of yeast cell suspension (OD₆₀₀=0.2) was dropped on SD/gal-HTL plates. As a control, the same yeast suspension was dropped on SD/gal-HT plates with leucine.

The target in series [5] is B2. Nature of the series: yeast two-hybrid (LexA system), HrpN bait, apple cDNA prey clone.
Series [6] addresses B2. Kind of series: yeast two-hybrid (LexA system), growth with or without leucine.

With “HrpN as applied to plants (Messenger, Eden Bioscience; 15 ug/ml of HrpN) (from UniProt Q01099 1-403)”, in series [1], the decrease in root growth of the AtHIPM T-DNA mutant line (few AtHIPM transcripts) after treatment with 15 ug/ml of HrpN amounted to 6%, the root growth of the wild-type 10 days after treatment with 15 ug/ml of HrpN worked out at 9% and the top growth of the wild-type plants one week after spraying with 15 ug/ml of HrpN is 10%.

B1: HIPM (HrpN-interacting protein from Malus), original yeast two-hybrid clone with the 53 C-terminal amino acids (other)
chain: GDRWSMRILWACAIGSAVSLYMVAVDRQLKNRERALAEELKAMEAESGSGEIV
notes: Residues 8-60 are worked out from that; also called pB42AD-HIPM; pAD-HIPM
Take B1: the binding result in series [2] is listed as “no binding”; in series [3], “no binding”; in series [4] it was “binds”; in series [5], “binds”.
On to B2, for which, in series [2], the binding result is “binds”.

B3: AtHIPM, 52 amino acid fragment orthologous to the original HIPM prey clone (other)
chain: NDKWSMRILWGCAIGSAIGLYMVAVERQTQNRARAMAESLRAAESQGDGDNV
With B3, the figures for the binding result in series [2] and in series [6] were “no binding” and “binds”, respectively.

The values are drawn from patent publication US20090044296A1 (CORNELL RESEARCH FOUNDATION, published 2009).
